Reference: the supplement of paper PMC9170038

Test system: MS2 coat protein
Experiment: apparent KD of MS2 coat protein; designed switch direction (-1 OFF switch, 1 ON switch): -1; higher = weaker reporter binding
In short: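 Designed RNA switches sharing common flanks were transcribed on Illumina chips by stalled E. coli RNA polymerase. They were titrated with SNAP-549-labelled MS2 coat protein, from 0.7 or 1.5 nM doubling to 3 µM, in Tris-HCl pH 7.5 buffer with KCl, MgCl2, BSA, DTT, tRNA and Tween-20. Titrations ran without input, with 200 uM small-molecule ligand, or with an oligonucleotide input. The apparent KD of each design is the median over its clusters, after curve-fitting of normalised cluster fluorescence.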

[1] = Eterna round: R95, input ligand: microRNA oligo, concentration not stated
[2] = input ligand: microRNA oligo, concentration not stated
[3] = Eterna round: R95, input ligand: FMN 200 uM
[4] = Eterna round: R95, input ligand: none

Row | Sequence | apparent KD of MS2 coat protein (input ligand: FMN 200 uM) | apparent KD of MS2 coat protein (input ligand: none) | apparent KD of MS2 coat protein [1] | other results
1 | GCAGAAUGAGUUAGGAUAUGAUGAUUAUUCGGAAAUCAGAAGGAACUUGAGGAUCACCCAAGUAAAGAUAGGGU [JR_BMEx4_Sub063] (Eterna round: R97, puzzle: Brourd's mod of Exclusion 4) | 0.361 µM | 0.221 µM | – | –
2 | UCGGCGCGAGGAUAUGCGGUUCCUUCUUCGGGCCGGAGCGUACAUGAGGAUCACCCAUGUAGAAGGCGCGCCGC [Apr-15 SS2-37] (puzzle: Exclusion 2) | – | – | 0.0126 µM | –
3 | UGUUGUUACGCAGGAUAUGCAUGAGGAUCACCCAUGCAAUUAGAGUUAACAUGAGGAUCACCCAUGUAGAAGGGCGGGUUAACA [pwkr exNG2 2xF5 1xFMN.4] (Eterna round: R96, puzzle: Exclusion NG 2) | 0.0822 µM | 0.0576 µM | – | apparent KD of MS2 coat protein [2]: 0.0458 µM
4 | AGCGUGUGAGAAGGAUAUCGACCCGAGACAGAUUGAGAAGGUCUCACAUGAGGAUCACCCAUGUGGACAGGGCGAGCUCCAGUC [Eternabot solution 11] (Eterna round: R96, puzzle: Exclusion NG 1) | 0.0283 µM | 0.0234 µM | – | apparent KD of MS2 coat protein [2]: 0.0146 µM
5 | GGGUGCAGGCUGAGGUCCUACAUGAGGAUCACCCAUGUGGUCCGGUGGCGUGGGUCGCCGGACUUGGCUCGUCUUGU [salish99_S_TOV1_R5_013] (Eterna round: R97, puzzle: Sensor, turn-off variant 1) | 0.0392 µM | 0.0458 µM | – | –
6 | CUGAGGUAGCGGUCCUAUGACAUGAGGAUCACCCAUGUACCUUGCUAUAAGCUUUUUGCUCGUCUUAUGAUUCUCGG [JL Atriat mod 7] (puzzle: Sensor v3, turn-off variant 1) | – | – | 0.713 µM | apparent KD of MS2 coat protein [3]: 0.246 µM; apparent KD of MS2 coat protein [4]: 0.302 µM
7 | AAACUGUGAGGAUAUGGUGAGUAGUGCCUGAGCGCUGCUCACCAGAAGGCACAUGAGGAUCACCCAUGUAUAAA [Mat - Exclusion 4 - Mod of JL - D6] (puzzle: Exclusion 4) | – | – | 0.0242 µM | –
8 | CCUAUGUGAGGAUAUCACUGGUCUGCUCACUAGAUGAUCAGUGAGAAGGCACAUGAGGAUCACCCAUGUCAGUG [Exclusion 4 - Mod Brourd Ex 4-3 - 53] (puzzle: Exclusion 4) | – | – | 0.0929 µM | –
9 | GUGGUGGGUUUUUCGAGUAACAUGAGGAUCACCCAUGUAUUAGUUGGAUGUAUCAAGCUUUGUGCUCGACUUAUAUA [JR_SV3TOV1_Sub044] (puzzle: Sensor v3, turn-off variant 1) | – | – | 0.442 µM | apparent KD of MS2 coat protein [3]: 0.659 µM; apparent KD of MS2 coat protein [4]: 0.696 µM
10 | GUCGAGUGAGGAUAUGGUGAGUAGUGCCUGAGCGCUGCUCACCAGAAGGCACAUGAGGAUCACCCAUGUAUGAC [Mat - Exclusion 4 - Mod of JL - D12] (puzzle: Exclusion 4) | – | – | 0.0178 µM | –
11 | UAGAUGGCUCAGGAUAUUUGCCAACUAACCCGCAAAGAAGGGAGCACAUGAGGAUCACCCAUGUGAUCGAACAA [Xeortibeza] (puzzle: Exclusion 6) | – | – | 0.0226 µM | apparent KD of MS2 coat protein [3]: 0.114 µM; apparent KD of MS2 coat protein [4]: 0.0261 µM
12 | GAUCAUGCAGGAUAUACAGUAUCCAUGAAAACAUGGAUCUCACAUGAGGAUCACCCAUGUAGAAGGGCAUGAUC [Omei Ex2 A25] (Eterna round: R97, puzzle: Exclusion 2) | 0.0401 µM | 0.0414 µM | – | –
13 | GGUGUGGCAGGAUAUACAUCGAAGGGUGCAAAGGGCUCGGCACAUGAGGAUCACCCAUGUAGAAGGGCCUACCA [Beated] (Eterna round: R96, puzzle: Exclusion 2) | 0.0253 µM | 0.0156 µM | – | apparent KD of MS2 coat protein [2]: 0.0136 µM
14 | GGUGCGUUUGUGAGGAUAUGCUGGUCCUUGGAUCAGCAGAAGGCACAUGAGGAUCACCCAUGUGGUGUCCGUCC [salish99_Bmod_Ex4_039] (puzzle: Brourd's mod of Exclusion 4) | – | – | 0.18 µM | –
15 | GGGCCGGCCGGAGGAUAUGCGGCCCGGCCGGCCGGUGGGCCGGCCGGGACAUGAGGAUCACCCAUGUAGAAGGCCGGCCGGCCC [low energy, MS2 in another position, A 14%] (Eterna round: R96, puzzle: Exclusion NG 2) | 0.0188 µM | 0.0159 µM | – | apparent KD of MS2 coat protein [2]: 0.0137 µM
16 | GCAGGUUAAGUCAGGAUAUACCUAUGGAUACAUAGGUAGAAGGGACAUGAGGAUCACCCAUGUGCCUCGCCUGC [Fiskers BMX 4 - 58] (puzzle: Brourd's mod of Exclusion 4) | – | – | 0.0154 µM | –
17 | UUUUAACAUGAGGAUCACCCAUGUGAGGAUAUCGAUAUUUUUAUUAAUAUUAAUAAAACGAGAAGGCACAUUUU [JMF 15] (puzzle: Exclusion 1) | – | – | 0.0654 µM | –
18 | CAGUACUGAGGAUAUACAUGAGGAUCACCCAUGUGAACCAGCUAGGAUACUAGCAAAAGUAGAAGGCAGUACUG [Mat - Exclusion 3 - Eli Mod - D17] (Eterna round: R97, puzzle: Exclusion 3) | 0.067 µM | 0.0714 µM | – | –

Row | Sequence | apparent KD of MS2 coat protein (input ligand: FMN 200 uM) | apparent KD of MS2 coat protein (input ligand: none) | apparent KD of MS2 coat protein [1] | other results
19 | CUUGUGUGAGGAUAUGACAAUGGUAUCUUCGGAUACCAUUGUCAGAAGGUACAUGAGGAUCACCCAUGUAGAUC [Exclusion 4 - Mod Brourd Ex 4-3: 20] (puzzle: Exclusion 4) | – | – | 0.072 µM | –
20 | GCGGAGUAUGUAGGAUAUCGGUCAGUUUCUGAUCGAGAAGGACAUGAGGAUCACCCAUGUAAAUUGCCCGCUUUGUGGGUCCGC [JL ENG1 3.61] (Eterna round: R96, puzzle: Exclusion NG 1) | 0.0365 µM | 0.0178 µM | – | apparent KD of MS2 coat protein [2]: 0.0132 µM
21 | ACCUCUUGAGGAUAUACAUGAGGAUCACCCAUGUUCCUUAAUAAAAUAGUUAUAUCGUGUAGAAGGUGGGAGGC [Eternabot (L2) Solution 42] (Eterna round: R97, puzzle: Exclusion 3) | 0.0114 µM | 0.069 µM | – | –
22 | CCAGCGAGUGUGAGGAUAUGCUGGUCCUUGGAUCAGCAGAAGGCACAUGAGGAUCACCCAUGUGAGGACGUUGG [JL bmx4 3.31] (puzzle: Brourd's mod of Exclusion 4) | – | – | 0.0239 µM | –
23 | GACUUCUCUGAGGAUAUUGCAUCAUACGAUAAAUAAGAAGGCAGAACAUGAGGAUCACCCAUGUGGGUUUUUAG [Bingo-Bango-32] (Eterna round: R97, puzzle: Exclusion 6) | 0.135 µM | 0.0686 µM | – | –
24 | CUAAAUCAUGUAGGAUAUGCGUGGCAAAGCUAUGCAGAAGGACAUGAGGAUCACCCAUGUCAUUCCGUCUGGAAACAGACGGGA [Mat - Exclusion NG 1 - Mod of JL - D53] (Eterna round: R96, puzzle: Exclusion NG 1) | 0.283 µM | 0.0228 µM | – | apparent KD of MS2 coat protein [2]: 0.0181 µM
25 | UUUUUGUGAGGAUAUCAGUAGUAAAAAAAUAAAAUUACUACUGAGAAGGCACAUGAGGAUCACCCAUGUUUUUU [salish99_ex4_r3_013] (puzzle: Exclusion 4) | – | – | 0.0433 µM | –
26 | GAAUGAGAGCAGGAUAUCUUAUAAAUGUAUGAAAGAGAAGGGCUCACAUGAGGAUCACCCAUGUGGUCCUAGAA [jl-ex6-4.78 jandersonlee mod] (Eterna round: R97, puzzle: Exclusion 6) | 0.506 µM | 0.0369 µM | – | –
27 | GAUAGAGAGCAGGAUAUCUUAGAAAUGUAUUAUAGAGAAGGGCUCACAUGAGGAUCACCCAUGUGGUCCUAGAU [JL Dibiri mod 15] (Eterna round: R96, puzzle: Exclusion 6) | 0.0943 µM | 0.0196 µM | – | apparent KD of MS2 coat protein [2]: 0.0144 µM
28 | UUUUAACAUGAGGAUCACCCAUGUGAGGAUAUCGAAAUUUAUAUUAAUAUUAUUAUAUCGAGAAGGCACAUUUU [JMF 40] (puzzle: Exclusion 1) | – | – | 0.0866 µM | –
29 | CGGAGCGGCUUAGGAUAUGCUGGAAUAUCCCUGCUCCUCAGAACAUGAGGAUCACCCAUGUACUGGCAGAAGGGAGCUGCAGAG [Inxeedsoxe] (Eterna round: R96, puzzle: Exclusion NG 2) | 0.0218 µM | 0.0187 µM | – | apparent KD of MS2 coat protein [2]: 0.0154 µM
30 | GGCACACAUGAGGAUCACCCAUGUGAGGAUAUGCUGCGAUCGUCGUAAGACGAUAGCAGUAGAAGGCACAUGCC [Mat - Exclusion 1 - Eli Mod - D8] (Eterna round: R97, puzzle: Exclusion 1) | 0.0229 µM | 0.0205 µM | – | –
31 | AGUACUAUGCGAGCUGACUUGCGUAGUGCAGCAGGUGGAACAUGAGGAUCACCCAUGUCCUCAUUUGCUCGUCUUAU [Mat - Sensor v3 - Turn-off var 2 - D4] (puzzle: Sensor v3, turn-off variant 2) | – | – | 0.12 µM | apparent KD of MS2 coat protein [3]: 0.0302 µM; apparent KD of MS2 coat protein [4]: 0.0268 µM
32 | AUUAAUGUCAAAGGAUAUCAGCACGAUUAGUGCUGAGAAGGUUGAACAUGAGGAUCACCCAUGUAGAUCAUUAAUAAUUUAAUU [ENG1/10-B2] (Eterna round: R96, puzzle: Exclusion NG 1) | 0.0264 µM | 0.0169 µM | – | apparent KD of MS2 coat protein [2]: 0.0179 µM
33 | GUGAGCAGACGGAGAUCCAACAUGAGGAUCACCCAUGUCUCACAAGCUUUUUGCUCGUCUUAUCCUCCUCUGUUCAC [Elimod 22 - Jieux - Sensor, turn-off variant 1] (Eterna round: R97, puzzle: Sensor, turn-off variant 1) | 0.0158 µM | 0.0146 µM | – | –
34 | UCGGCGCGAGGAUAUGCGGCUCCUGCUUCGGGCCGGAGCGUACAUGAGGAUCACCCAUGUAGAAGGCGCGCCGC [Apr-15 SS2-39] (puzzle: Exclusion 2) | – | – | 0.0102 µM | –
35 | AAAGCCAAGCGAGGAUAUGCGAUAGUUGAUCUUCGUGAGGACAUGAGGAUCACCCAUGUGCUGCAGCAGAAGGCGCAGGUAAAG [Anramaqu] (Eterna round: R96, puzzle: Exclusion NG 2) | 0.754 µM | 0.318 µM | – | apparent KD of MS2 coat protein [2]: 0.14 µM
